From patent US20240092867A1 (UNIVERSITY OF CHICAGO, published 2024) come the findings set out here.

One experiment addresses T1, laminin-521 (human, UniProt O15230 36-3695; P55268 33-1798; P11047 34-1609).
T1 construct: Full-length recombinant human laminin isoform (BioLamina); chains read from the isoform name
Description: SPR, laminin-521 immobilised, GF flowed, Langmuir fit. The method, then:
A450 nm represents absorbance at 450 nm. BSA-coated wells served as negative controls (n=4, mean±SEM). Signals greater than 0.1 (grey box) are considered to be significant. […] Experimental curves were fitted with Langmuir binding kinetics.
The obtained binding curves were fitted with Langmuir binding kinetics to calculate specific dissociation constants (KD) (FIG. 1B).
SPR analysis was performed as described previously². In brief, measurements were made with a Biacore 3000 SPR system (GE Healthcare). […] VEGF-A165, PDGF-BB, or PlGF-2 was flowed at increasing concentrations in the running buffer at 20 μL/min. The sensor chip was regenerated with 50 mM NaOH for every cycle. Specific bindings of GFs to laminin were calculated by comparison to a non-functionalized channel used as a reference. Experimental results were fitted with Langmuir binding kinetics using BIAevaluation software (GE Healthcare).

For experiment [1], the target named is T2, recombinant human vWF A2 domain (human, UniProt P04275 1498-1665).
T2 construct: domain: A2
Description: ELISA, domain coated 50 nM. The procedure: (§1) ELISA was performed as previously reported1. […] After blocking with 2% BSA solution containing PBS-T, 1 μg/mL of recombinant human VEGF-A121 (PeproTech), recombinant human VEGF-A145 (R & D Systems), or recombinant human VEGF-A165 (PeproTech) was added. Bound VEGF-A was detected with 1 μg/mL of mouse anti-human VEGF-A antibody (clone: 26503, R & D systems). After 60 min of incubation, horseradish peroxidase (HRP) conjugated goat anti-mouse antibody (1:2000 dilution, Dako) was added and incubated for another 60 min. Color development and the absorbance measurement were done as described above.

Experiment [2] has as its target T3, recombinant human vWF A3 domain (human, UniProt P04275 1683-1874).
T3 construct: domain: A3
Description: ELISA, domain coated 50 nM. The procedure:
as §1

A further experiment has as its target T4, human plasma-derived vWF (human, UniProt P04275 764-2813).
T4 construct: mature; also called plasma-derived purified vWF; von Willebrand factor
Description: SPR; plasma-derived vWF immobilised (~2000 RU), VEGF-A165 flowed at 6.25-100 nM; 1:1 Langmuir fit [panel C]. The method, then:
A450 nm represents absorbance at 450 nm. Signals from VEGF-A121 served as a baseline, and bovine serum albumin (BSA) served as a negative control (n=4, mean±SD). […] Experimental curves were fitted with (C) 1:1 Langmuir fit model and (D) heterogeneous ligand-parallel reactions binding.
SPR assays were performed as described previously2. In brief, measurements were made with a Biacore X100 SPR system or Biacore 3000 SPR system (GE Healthcare). […] Recombinant human VEGF-A165, VEGF-A121, or PDGF-BB was flowed at increasing concentrations in the running buffer at 30 μL/min. The sensor chip was regenerated with glycine at pH 2 for every cycle.

The target of a further experiment is T5, laminin-421 (human, UniProt Q16363 25-1823; P55268 33-1798; P11047 34-1609).
T5 construct: Full-length recombinant human laminin isoform (BioLamina); chains read from the isoform name
T5 sequence (Q16363 25-1823 limits assumed, chain 1 of 3): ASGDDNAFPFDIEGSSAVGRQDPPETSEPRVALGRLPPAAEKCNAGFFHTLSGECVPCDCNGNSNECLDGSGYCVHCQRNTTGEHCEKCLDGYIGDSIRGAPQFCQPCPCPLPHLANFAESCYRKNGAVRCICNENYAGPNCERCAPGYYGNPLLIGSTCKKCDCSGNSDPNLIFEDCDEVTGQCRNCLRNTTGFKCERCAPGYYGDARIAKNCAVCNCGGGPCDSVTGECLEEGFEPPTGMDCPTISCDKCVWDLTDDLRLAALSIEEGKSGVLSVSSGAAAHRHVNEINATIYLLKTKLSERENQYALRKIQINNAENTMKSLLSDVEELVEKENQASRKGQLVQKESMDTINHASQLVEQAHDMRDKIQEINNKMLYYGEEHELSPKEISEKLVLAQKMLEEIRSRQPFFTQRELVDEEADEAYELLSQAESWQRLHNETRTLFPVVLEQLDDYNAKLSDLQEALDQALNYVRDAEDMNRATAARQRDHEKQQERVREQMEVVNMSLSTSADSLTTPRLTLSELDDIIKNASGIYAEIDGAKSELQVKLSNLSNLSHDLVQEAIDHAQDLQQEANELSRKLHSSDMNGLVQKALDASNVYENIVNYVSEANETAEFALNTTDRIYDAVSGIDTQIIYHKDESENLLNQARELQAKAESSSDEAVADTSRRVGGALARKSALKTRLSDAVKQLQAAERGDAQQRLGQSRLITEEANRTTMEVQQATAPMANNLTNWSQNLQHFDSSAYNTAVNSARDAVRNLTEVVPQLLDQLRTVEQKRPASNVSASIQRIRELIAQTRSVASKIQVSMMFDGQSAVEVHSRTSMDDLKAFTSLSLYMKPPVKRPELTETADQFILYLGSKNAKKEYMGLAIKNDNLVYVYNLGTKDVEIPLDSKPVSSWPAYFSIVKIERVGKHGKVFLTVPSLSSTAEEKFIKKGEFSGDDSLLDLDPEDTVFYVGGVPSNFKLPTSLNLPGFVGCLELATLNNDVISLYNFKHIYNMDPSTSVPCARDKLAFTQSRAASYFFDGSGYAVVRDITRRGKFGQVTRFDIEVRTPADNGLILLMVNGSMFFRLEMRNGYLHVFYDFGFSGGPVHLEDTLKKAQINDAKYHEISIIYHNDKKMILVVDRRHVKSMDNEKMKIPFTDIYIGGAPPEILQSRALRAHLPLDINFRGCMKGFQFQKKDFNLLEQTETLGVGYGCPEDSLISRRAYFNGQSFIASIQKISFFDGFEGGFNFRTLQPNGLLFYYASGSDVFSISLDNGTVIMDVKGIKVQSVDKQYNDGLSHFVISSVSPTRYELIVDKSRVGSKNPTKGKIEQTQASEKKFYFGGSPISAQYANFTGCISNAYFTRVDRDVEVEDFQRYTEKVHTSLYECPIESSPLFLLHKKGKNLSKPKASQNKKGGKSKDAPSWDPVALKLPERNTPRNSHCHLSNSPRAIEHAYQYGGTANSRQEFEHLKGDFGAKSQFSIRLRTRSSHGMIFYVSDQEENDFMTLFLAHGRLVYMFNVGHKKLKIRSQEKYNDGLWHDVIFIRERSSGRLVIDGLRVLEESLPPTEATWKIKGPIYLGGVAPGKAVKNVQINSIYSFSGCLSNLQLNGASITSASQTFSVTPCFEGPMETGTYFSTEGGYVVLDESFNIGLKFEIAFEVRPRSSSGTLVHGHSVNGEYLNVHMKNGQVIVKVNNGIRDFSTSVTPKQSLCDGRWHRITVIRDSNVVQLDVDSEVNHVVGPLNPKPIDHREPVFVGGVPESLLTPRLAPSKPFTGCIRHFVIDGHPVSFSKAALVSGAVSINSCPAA
T5 sequence (P55268 33-1798 limits assumed, chain 2 of 3): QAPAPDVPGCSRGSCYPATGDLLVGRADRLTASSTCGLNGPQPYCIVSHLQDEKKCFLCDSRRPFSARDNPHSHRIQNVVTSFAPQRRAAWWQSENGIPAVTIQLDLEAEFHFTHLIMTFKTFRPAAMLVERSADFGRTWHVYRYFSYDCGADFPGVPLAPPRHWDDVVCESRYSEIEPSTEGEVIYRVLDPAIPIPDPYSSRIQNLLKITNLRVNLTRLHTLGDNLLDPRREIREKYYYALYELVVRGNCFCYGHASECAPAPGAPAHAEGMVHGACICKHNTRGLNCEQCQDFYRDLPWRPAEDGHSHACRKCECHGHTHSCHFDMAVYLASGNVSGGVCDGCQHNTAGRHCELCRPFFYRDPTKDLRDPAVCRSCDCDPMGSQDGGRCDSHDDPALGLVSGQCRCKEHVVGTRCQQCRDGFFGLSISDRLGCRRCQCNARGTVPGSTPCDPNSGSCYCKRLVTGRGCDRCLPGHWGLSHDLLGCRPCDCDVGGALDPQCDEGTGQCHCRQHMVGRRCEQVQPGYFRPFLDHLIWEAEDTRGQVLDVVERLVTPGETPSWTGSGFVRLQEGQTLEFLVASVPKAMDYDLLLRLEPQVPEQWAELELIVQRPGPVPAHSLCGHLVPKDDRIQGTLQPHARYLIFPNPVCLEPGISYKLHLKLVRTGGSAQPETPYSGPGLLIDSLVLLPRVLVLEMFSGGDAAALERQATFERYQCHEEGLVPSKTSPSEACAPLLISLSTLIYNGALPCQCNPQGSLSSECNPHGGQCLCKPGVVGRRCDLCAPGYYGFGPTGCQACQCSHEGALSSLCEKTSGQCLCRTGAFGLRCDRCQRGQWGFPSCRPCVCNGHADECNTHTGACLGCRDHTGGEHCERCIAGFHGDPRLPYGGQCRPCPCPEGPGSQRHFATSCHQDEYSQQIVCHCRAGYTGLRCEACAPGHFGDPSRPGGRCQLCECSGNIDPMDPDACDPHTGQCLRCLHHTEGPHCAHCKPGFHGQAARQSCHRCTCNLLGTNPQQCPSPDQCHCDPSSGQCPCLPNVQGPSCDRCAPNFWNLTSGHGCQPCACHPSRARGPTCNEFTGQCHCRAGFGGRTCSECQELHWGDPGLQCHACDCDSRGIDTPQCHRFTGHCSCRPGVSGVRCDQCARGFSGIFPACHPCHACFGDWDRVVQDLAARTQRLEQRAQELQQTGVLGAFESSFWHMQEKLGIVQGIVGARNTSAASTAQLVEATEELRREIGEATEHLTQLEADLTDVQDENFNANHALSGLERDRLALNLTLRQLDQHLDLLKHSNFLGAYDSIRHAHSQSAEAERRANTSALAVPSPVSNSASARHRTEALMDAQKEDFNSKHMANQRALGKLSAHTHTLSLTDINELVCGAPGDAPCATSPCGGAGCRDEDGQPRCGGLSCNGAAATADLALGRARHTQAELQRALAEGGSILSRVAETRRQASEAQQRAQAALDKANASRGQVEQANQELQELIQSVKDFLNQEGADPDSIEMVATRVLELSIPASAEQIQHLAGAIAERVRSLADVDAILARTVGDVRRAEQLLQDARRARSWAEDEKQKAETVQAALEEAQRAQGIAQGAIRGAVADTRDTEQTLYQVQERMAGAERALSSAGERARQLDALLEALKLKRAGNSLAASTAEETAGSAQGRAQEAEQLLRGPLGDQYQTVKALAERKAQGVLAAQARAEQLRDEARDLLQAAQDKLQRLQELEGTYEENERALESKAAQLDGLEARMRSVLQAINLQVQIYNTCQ
T5 sequence (P11047 34-1609 limits assumed, chain 3 of 3): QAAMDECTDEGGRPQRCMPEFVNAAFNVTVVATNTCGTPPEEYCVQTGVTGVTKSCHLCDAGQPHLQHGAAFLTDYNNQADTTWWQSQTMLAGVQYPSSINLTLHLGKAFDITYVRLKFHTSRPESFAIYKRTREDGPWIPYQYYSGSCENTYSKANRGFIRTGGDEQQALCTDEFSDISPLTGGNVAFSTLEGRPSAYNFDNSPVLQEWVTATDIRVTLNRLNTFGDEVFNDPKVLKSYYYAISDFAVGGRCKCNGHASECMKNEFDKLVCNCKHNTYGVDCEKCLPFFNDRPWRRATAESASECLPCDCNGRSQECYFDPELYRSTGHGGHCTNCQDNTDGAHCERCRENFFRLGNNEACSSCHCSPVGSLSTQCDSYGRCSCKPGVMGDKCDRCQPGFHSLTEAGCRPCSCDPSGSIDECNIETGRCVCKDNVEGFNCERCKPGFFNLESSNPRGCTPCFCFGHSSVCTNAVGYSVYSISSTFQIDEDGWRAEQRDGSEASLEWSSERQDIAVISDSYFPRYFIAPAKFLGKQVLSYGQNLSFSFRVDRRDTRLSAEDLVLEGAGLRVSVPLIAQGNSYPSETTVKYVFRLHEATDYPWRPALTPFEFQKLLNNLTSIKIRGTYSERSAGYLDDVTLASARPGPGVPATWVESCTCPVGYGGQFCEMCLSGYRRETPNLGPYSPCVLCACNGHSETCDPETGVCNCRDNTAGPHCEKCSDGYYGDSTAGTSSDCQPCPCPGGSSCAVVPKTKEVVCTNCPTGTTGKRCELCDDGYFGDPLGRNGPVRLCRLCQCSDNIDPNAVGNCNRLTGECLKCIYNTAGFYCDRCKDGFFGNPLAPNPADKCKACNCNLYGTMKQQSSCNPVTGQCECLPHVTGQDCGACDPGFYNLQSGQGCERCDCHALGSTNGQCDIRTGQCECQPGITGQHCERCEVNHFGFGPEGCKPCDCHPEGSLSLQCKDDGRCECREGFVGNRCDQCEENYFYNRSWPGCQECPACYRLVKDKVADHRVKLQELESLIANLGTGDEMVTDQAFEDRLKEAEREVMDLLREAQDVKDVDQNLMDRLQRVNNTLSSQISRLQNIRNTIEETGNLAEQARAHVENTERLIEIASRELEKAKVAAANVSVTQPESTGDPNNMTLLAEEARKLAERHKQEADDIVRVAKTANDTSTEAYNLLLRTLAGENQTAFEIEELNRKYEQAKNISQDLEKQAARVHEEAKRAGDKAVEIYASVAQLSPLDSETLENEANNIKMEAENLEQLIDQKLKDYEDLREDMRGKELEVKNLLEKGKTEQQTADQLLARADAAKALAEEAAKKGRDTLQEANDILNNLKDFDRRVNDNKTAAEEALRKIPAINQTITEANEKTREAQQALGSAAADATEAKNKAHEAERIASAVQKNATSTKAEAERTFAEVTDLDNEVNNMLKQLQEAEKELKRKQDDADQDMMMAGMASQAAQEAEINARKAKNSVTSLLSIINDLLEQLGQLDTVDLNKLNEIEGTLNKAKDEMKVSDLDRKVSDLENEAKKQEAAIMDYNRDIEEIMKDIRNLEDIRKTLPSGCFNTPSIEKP
Description: ELISA; plate coated with 10 µg/mL laminin, 1 µg/mL VEGF-A165 in solution without or with 10 µM heparin, bound GF detected with antibody [panel A]. The procedure: (§2) FIGS. 2A-C. […] ELISA plates were coated with 10 μg/mL laminin and further incubated with a 1 μg/mL (A) VEGF-A165, (B) PlGF-2, or (C) FGF-2 solution in the absence or presence of excess (10 μM) heparin. Bound GFs were detected using a specific antibody for each GF (n=4, mean±SEM). Statistical analyses were done using the Mann-Whitney U test by comparing the signals with and without heparin. *p<0.05, **p<0.01.
(§3) Because the GFs that bound to laminins have also been previously reported to bind to other ECM glycoproteins through HBDs, it was hypothesized that HBDs of laminins might be responsible for the interactions between GFs and laminin. To address this hypothesis, ELISA assays were repeated for VEGF-A165, PlGF-2 or FGF-2 in the presence of heparin added in excess (10 μM). […] To further confirm this, the inventors tested direct GF binding to the LG domains from human laminin α3, α4 and α5, within which HBDs of laminin were localized.

The next experiment has as its target T6, laminin-111 (human, UniProt P25391 18-3075; P07942 22-1786; P11047 34-1609).
T6 construct: Full-length recombinant human laminin isoform (BioLamina); Chain composition is read from the isoform name
The description is as above. The method, then: as §2, §3

The target of the next experiment is T7, laminin-211 (human, UniProt P24043 23-3122; P07942 22-1786; P11047 34-1609).
T7 construct: Full-length recombinant human laminin isoform (BioLamina); chains read from the isoform name
Described as above. The procedure:
as §2, §3

For a further experiment, the target named is T8, laminin-411 (human, UniProt Q16363 25-1823; P07942 22-1786; P11047 34-1609).
T8 construct: Full-length recombinant human laminin isoform (BioLamina); chains read from the isoform name
Described as above. The procedure: as §2, §3

B1: vascular endothelial growth factor (VEGF)-A165 (ligand, human, UniProt P15692-4 27-191, looked up)
chain: APMAEGGGQNHHEVVKFMDVYQRSYCHPIETLVDIFQEYPDEIEYIFKPSCVPLMRCGGCCNDEGLECVPTEESNITMQIMRIKPHQGQHIGEMSFLQHNKCECRPKKDRARQENPCGPCSERRKHLFVQDPQTCKCSCKNTDSRCKARQLELNERTCRCDKPRR
notes: mature; Purchased in mature form, not glycosylated
As for B1, the Kd with laminin-521 stood at 5.8 nM; in the experiment with human plasma-derived vWF, 27.4 nM. Besides, the binding result was “no binding (tested: 1 µg/mL)” in experiment [1]; “no binding (tested: 1 µg/mL)” in experiment [2]; “binds” with laminin-421; “binds” in the experiment with laminin-111; “binds” in the experiment with laminin-211; “binds” with laminin-411.
